Holding throughout (assay): cell-based or functional assay
For experiment [1], the target named is CaMKI(h) (human, UniProt Q14012 1-370).
In experiment [2] the target is MAPKAP-K3(h) (human, UniProt Q16644 1-382, limits assumed).
The target of experiment [3] is TrkB(h) (human, UniProt Q16620 455-822, limits assumed).
Experiment [4] has as its target MAPKAP-K2(h) (human, UniProt P49137 46-400).
The target of experiment [5] is cKit(h) (human, UniProt P10721 544-976).
For experiment [6], the target named is Met(Y1248H)(h) (human, UniProt P08581-2 974-1408, limits assumed).
Experiment [7] has as its target Fgr(h) (human, UniProt P09769 1-529).
Experiment [8] addresses MINK(h) (human, UniProt Q8N4C8 1-320, limits assumed).
The target in experiment [9] is CDK5/p35(h) (human, UniProt Q00535 1-292; Q15078 1-307).
Experiment [10] concerns the target ASK1(h) (human, UniProt Q99683 649-946, limits assumed).
Experiment [11] addresses ErbB4(h) (human, UniProt Q15303 706-991, limits assumed).
The target in experiment [12] is T1, PRAK(h) (human, UniProt Q8IW41 1-473, limits assumed).
T1 sequence (looked up): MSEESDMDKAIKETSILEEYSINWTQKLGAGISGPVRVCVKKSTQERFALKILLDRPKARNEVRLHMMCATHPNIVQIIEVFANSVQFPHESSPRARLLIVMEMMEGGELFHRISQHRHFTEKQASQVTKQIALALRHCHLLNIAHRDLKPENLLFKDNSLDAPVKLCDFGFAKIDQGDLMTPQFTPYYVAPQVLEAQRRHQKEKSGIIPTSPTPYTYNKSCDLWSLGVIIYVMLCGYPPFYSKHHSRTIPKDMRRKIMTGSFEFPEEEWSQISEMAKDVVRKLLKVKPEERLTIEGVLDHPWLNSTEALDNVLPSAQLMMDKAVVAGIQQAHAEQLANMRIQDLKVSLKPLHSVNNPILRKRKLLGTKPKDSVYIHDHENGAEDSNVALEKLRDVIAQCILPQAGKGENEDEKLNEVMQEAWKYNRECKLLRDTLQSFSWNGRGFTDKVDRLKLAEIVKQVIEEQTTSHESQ

For experiment [13], the target named is BRK(h) (human, UniProt Q13882 1-451, limits assumed).
Experiment [14] concerns the target T2, EphA3(h) (human, UniProt P29320 566-983, limits assumed).
T2 sequence (looked up): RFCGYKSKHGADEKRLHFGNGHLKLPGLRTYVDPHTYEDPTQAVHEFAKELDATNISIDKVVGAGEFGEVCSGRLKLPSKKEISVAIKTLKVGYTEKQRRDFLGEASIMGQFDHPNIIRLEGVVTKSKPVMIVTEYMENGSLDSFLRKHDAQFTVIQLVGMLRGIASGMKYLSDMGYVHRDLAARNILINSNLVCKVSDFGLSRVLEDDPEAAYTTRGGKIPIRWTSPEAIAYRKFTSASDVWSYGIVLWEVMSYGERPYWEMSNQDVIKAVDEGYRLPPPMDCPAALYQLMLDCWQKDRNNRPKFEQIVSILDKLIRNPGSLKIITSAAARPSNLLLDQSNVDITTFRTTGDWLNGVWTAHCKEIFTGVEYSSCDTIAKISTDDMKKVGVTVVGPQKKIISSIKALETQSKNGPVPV

Experiment [15] has as its target T3, EphB3(h) (human, UniProt P54753 581-998, limits assumed).
T3 sequence (looked up): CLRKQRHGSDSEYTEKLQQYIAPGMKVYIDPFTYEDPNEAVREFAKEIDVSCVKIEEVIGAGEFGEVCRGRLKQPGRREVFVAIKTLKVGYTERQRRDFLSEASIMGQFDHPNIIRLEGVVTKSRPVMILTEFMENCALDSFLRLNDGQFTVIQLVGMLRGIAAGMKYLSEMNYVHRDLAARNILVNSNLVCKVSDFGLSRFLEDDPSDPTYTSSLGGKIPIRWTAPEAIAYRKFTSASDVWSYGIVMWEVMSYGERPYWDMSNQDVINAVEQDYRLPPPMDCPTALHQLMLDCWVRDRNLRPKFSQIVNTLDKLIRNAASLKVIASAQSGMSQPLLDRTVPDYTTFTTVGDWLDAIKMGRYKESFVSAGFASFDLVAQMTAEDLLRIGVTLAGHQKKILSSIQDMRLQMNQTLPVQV

Experiment [16] has as its target T4, BrSK2(h) (human, UniProt Q8IWQ3 1-736, limits assumed).
T4 sequence (looked up): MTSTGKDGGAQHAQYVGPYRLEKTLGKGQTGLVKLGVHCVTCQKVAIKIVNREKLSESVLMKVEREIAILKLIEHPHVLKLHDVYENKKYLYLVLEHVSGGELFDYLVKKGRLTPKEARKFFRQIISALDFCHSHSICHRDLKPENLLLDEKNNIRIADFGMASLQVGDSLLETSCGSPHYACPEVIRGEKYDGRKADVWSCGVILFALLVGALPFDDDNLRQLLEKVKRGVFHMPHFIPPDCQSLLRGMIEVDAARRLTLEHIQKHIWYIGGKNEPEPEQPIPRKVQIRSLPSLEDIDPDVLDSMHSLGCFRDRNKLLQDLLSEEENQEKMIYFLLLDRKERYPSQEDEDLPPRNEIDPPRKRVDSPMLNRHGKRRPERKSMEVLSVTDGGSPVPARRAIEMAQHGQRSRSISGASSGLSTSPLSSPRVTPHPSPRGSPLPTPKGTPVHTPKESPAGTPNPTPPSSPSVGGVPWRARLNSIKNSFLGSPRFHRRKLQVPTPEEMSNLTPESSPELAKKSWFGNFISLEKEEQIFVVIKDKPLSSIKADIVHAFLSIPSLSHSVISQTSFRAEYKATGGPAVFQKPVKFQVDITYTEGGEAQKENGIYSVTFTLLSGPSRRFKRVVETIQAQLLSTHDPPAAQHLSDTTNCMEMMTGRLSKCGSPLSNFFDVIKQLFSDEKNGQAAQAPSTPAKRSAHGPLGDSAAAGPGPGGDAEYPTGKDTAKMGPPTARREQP

Sequence of MAPKAP-K2(h) (P49137 46-400 limits assumed): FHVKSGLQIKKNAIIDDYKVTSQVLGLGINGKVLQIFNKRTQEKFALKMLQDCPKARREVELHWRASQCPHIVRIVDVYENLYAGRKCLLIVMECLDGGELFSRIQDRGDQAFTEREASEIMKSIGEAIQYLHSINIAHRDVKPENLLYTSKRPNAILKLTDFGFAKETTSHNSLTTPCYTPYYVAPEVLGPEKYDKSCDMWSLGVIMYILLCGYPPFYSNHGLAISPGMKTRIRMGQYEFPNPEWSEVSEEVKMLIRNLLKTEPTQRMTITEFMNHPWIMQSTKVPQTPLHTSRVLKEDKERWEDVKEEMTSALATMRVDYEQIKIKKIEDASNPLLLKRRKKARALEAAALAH
Sequence of TrkB(h) (Q16620 455-822 limits assumed): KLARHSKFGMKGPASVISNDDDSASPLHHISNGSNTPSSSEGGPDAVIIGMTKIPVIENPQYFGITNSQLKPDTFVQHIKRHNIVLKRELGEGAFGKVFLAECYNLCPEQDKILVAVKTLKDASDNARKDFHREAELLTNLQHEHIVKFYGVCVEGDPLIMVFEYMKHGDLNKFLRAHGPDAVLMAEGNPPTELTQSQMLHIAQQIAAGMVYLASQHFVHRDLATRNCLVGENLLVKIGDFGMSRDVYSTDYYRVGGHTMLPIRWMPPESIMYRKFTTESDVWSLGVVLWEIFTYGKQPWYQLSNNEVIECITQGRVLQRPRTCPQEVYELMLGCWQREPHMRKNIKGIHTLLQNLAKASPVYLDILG
Sequence of MAPKAP-K3(h) (Q16644 whole entry): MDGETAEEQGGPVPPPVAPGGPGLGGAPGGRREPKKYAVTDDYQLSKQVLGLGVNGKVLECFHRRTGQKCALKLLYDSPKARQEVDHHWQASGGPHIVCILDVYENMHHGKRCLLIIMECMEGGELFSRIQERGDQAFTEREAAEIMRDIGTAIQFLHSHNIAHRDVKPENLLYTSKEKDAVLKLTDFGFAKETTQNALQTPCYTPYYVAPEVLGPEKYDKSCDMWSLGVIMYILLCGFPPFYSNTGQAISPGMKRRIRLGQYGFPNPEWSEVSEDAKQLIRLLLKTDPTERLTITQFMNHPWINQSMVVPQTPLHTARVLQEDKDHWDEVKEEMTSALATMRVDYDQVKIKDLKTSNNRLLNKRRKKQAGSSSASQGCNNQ
Sequence of ASK1(h) (Q99683 649-946 limits assumed): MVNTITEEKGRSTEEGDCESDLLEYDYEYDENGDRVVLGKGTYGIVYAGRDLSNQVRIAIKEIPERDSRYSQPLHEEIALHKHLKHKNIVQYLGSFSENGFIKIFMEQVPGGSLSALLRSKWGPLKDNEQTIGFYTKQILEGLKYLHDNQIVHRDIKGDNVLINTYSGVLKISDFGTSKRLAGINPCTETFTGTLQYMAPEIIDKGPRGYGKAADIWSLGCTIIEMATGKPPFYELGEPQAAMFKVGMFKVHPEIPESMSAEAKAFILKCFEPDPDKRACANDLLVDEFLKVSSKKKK
Sequence of cKit(h) (P10721 544-976): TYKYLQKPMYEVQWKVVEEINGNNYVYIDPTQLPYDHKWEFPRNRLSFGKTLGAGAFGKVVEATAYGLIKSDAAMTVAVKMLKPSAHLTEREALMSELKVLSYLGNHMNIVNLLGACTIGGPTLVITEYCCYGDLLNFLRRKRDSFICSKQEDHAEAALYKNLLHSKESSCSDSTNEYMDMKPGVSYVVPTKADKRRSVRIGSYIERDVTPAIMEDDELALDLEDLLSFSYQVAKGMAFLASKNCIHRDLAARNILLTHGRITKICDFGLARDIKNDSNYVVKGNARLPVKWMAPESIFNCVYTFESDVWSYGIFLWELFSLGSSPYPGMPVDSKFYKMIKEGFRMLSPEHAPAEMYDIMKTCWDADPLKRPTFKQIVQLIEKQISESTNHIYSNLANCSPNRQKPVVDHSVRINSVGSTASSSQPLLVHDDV
Sequence of MINK(h) (Q8N4C8 1-320 limits assumed): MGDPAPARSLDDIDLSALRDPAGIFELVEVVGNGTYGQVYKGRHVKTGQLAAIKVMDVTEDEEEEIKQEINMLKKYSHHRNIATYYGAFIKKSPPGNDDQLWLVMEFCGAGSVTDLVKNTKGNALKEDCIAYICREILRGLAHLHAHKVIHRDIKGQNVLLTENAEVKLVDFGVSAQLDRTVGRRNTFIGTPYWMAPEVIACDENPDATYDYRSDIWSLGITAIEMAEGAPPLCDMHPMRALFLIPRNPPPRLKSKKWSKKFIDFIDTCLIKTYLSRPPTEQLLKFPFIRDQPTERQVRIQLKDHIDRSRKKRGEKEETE
Sequence of ErbB4(h) (Q15303 706-991 limits assumed): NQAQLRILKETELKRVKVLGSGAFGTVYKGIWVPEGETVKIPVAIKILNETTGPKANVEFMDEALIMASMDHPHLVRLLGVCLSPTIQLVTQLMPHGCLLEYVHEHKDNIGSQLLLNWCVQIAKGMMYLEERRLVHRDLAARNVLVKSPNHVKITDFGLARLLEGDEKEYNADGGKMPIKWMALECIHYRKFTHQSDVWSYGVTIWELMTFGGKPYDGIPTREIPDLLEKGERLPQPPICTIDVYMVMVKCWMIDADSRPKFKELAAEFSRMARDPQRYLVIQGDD
Sequence of CaMKI(h) (Q14012 whole entry): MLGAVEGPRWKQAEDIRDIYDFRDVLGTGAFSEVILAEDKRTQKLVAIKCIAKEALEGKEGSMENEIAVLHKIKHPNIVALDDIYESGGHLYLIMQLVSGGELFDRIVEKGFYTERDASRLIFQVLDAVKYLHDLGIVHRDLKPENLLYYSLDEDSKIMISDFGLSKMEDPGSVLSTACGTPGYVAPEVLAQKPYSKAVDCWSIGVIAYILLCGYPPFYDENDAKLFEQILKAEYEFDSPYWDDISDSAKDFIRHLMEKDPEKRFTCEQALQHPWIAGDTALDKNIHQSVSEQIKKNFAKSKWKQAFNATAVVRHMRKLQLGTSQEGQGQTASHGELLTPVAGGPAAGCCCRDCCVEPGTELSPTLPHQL

For the molecule FAKLAARLYRKALARQLGVAA [MMI-0300], the “inhibition of kinase activity at 100 µM” value in [1], in experiment [2], in [3] and in experiment [4] was more than 65% throughout. Further, the “% activity, 100 µM” value in experiment [5] came to 53%; in [6], 117%; in experiment [7], 60%; in [8] it was 48%; in experiment [9], 79%; in [10] it was 80%. Further, the “% activity, 100 µM” value in [11] came to 40%; in [12], 128%; in experiment [13], 35%; in experiment [14] it was 6%; in experiment [15], 62%; in [16], 83%.

As for KAFAKLAARLYRKALARQLGVAA [MMI-0400], the “inhibition of kinase activity at 100 µM” value in [1], in [2], in [3] and in experiment [4] was more than 65% in each case. Moreover, the “% activity, 100 µM” value was determined as 43% in experiment [5]; 63% in [6]; 47% in [7]; 52% in experiment [8]; 76% in experiment [9]; 69% in [10]. For the same molecule, the “% activity, 100 µM” value was 0% in experiment [11]; 118% in [12]; 18% in experiment [13]; 12% in [14]; 47% in experiment [15]; 86% in experiment [16].
